Nine molecules from article PMC11949838, “FUT10 and FUT11 are protein O-fucosyltransferases that modify protein EMI domains” (Nature Chemical Biology, 2025) can be followed below.

The target in series [1] is human MMRN1 N-terminal EMI-Myc-His6 (first 290 amino acids of Multimerin-1, wild type) (human) (UniProt Q13201).
The next series concerns the target T1, GFP–FUT10 (POFUT3) (Homo sapiens, UniProt Q6P4F1).
T1 sequence (Q6P4F1 34-479 limits assumed): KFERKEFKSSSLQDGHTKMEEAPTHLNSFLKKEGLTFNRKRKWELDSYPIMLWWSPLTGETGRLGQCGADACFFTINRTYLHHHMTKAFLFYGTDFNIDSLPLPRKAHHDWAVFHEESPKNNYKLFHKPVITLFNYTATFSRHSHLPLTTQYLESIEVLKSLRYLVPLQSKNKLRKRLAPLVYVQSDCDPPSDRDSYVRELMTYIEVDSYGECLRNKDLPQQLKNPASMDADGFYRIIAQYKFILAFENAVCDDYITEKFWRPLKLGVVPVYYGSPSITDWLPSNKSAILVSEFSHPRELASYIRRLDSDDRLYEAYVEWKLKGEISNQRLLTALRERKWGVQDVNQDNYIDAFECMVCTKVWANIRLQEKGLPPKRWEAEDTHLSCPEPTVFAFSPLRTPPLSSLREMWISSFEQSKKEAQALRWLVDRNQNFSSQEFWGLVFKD
The experiment in a line: nano LC-MS/MS of O-fucosylated EMI peptides. Format: biochemical. The note with it: donor; 100 μM with 0.5 μM non-fucosylated MMRN1 N-terminal EMI, 50 mM HEPES pH 7, 37 °C.

The target in another series is T2, GFP–FUT8 (Homo sapiens, UniProt Q9BYC5).
T2 sequence (Q9BYC5 31-575 limits assumed): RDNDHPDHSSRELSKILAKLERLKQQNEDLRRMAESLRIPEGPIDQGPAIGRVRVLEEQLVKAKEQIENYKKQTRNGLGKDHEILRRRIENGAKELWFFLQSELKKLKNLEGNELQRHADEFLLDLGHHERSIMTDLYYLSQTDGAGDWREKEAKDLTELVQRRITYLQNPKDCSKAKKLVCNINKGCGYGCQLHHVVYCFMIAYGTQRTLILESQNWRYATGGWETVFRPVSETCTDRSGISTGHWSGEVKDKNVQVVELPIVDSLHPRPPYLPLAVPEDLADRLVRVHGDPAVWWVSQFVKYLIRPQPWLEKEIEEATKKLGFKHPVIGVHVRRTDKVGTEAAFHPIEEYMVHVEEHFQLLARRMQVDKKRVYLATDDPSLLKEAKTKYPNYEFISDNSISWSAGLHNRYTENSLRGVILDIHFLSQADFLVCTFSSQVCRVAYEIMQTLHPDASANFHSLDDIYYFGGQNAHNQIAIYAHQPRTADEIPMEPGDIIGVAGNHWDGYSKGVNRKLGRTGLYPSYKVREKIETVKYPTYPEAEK
The experiment in a line: nano LC-MS/MS of N-glycan fucosylation on EMI. Particulars: donor; 100 μM with 0.5 μM non-fucosylated MMRN1 N-terminal EMI, 50 mM HEPES pH 7, 37 °C, 30 min; positive control. The series is classed as biochemical.

Series [2] in a line: anti-Myc western blot of medium, normalised to IgG.
Series [3] in a line: western blot of cell lysates. The note with it: glycan lost; control: wild type full-length MMRN1.
Substrate in series [4]: C[C@@H]1O[C@H](OP(=O)(O)OP(=O)(O)OC[C@H]2O[C@@H](n3cnc4c(=O)[nH]c(N)nc43)[C@H](O)[C@@H]2O)[C@@H](O)[C@H](O)[C@@H]1O
The experiment in a line: nano LC-MS/MS glycopeptide quantification, Michaelis-Menten fit. The series is classed as biochemical, Homo sapiens. Particulars: donor, 20 μM non-fucosylated MMRN1 N-terminal EMI, 0.3 mM MnCl2, 50 mM HEPES pH 7, 37 °C, 15 min, same value for T216 and T265 sites.

The mark [5] stands for this setting: glycan lost, control: wild type full-length MMRN1.

“GFP–FUT11 (human FUT11 lacking the transmembrane domain, from pGEn2-GFP-hFUT11) (from UniProt Q495W5 1-492) (enzyme)”: in series [1], the Km for non-fucosylated N-terminal EMI at the T216 site; O-fucosylation kinetics by LC-MS/MS, Michaelis–Menten fit, 50 nM enzyme, 100 μM GDP-fucose, 0.3 mM MnCl2, 37 °C, 15 min turned out to be 6.74 µM.
On to `C[C@@H]1O[C@H](OP(=O)(O)OP(=O)(O)OC[C@H]2O[C@@H](n3cnc4c(=O)[nH]c(N)nc43)[C@H](O)[C@@H]2O)[C@@H](O)[C@H](O)[C@@H]1O` [GDP-fucose], for which the “nano LC-MS/MS of O-fucosylated EMI peptides” value on GFP–FUT10 (POFUT3) was “Both GFP–FUT10 and GFP–FUT11 can independently add fucose to EMI substrates”. The “nano LC-MS/MS of N-glycan fucosylation on EMI” value at GFP–FUT8 is “GFP–FUT8 was used as a positive control, and it robustly added fucose to N-glycans”.

B1: Multimerin-1 (MMRN1): FX KO (protein)
parent chain: MKGARLFVLLSSLWSGGIGLNNSKHSWTIPEDGNSQKTMPSASVPPNKIQSLQILPTTRVMSAEIATTPEARTSEDSLLKSTLPPSETSAPAEGVRNQTLTSTEKAEGVVKLQNLTLPTNASIKFNPGAESVVLSNSTLKFLQSFARKSNEQATSLNTVGGTGGIGGVGGTGGVGNRAPRETYLSRGDSSSSQRTDYQKSNFETTRGKNWCAYVHTRLSPTVILDNQVTYVPGGKGPCGWTGGSCPQRSQKISNPVYRMQHKIVTSLDWRCCPGYSGPKCQLRAQEQQSLIHTNQAESHTAVGRGVAEQQQQQGCGDPEVMQKMTDQVNYQAMKLTLLQKKIDNISLTVNDVRNTYSSLEGKVSEDKSREFQSLLKGLKSKSINVLIRDIVREQFKIFQNDMQETVAQLFKTVSSLSEDLESTRQIIQKVNESVVSIAAQQKFVLVQENRPTLTDIVELRNHIVNVRQEMTLTCEKPIKELEVKQTHLEGALEQEHSRSILYYESLNKTLSKLKEVHEQLLSTEQVSDQKNAPAAESVSNNVTEYMSTLHENIKKQSLMMLQMFEDLHIQESKINNLTVSLEMEKESLRGECEDMLSKCRNDFKFQLKDTEENLHVLNQTLAEVLFPMDNKMDKMSEQLNDLTYDMEILQPLLEQGASLRQTMTYEQPKEAIVIRKKIENLTSAVNSLNFIIKELTKRHNLLRNEVQGRDDALERRINEYALEMEDGLNKTMTIINNAIDFIQDNYALKETLSTIKDNSEIHHKCTSDMETILTFIPQFHRLNDSIQTLVNDNQRYNFVLQVAKTLAGIPRDEKLNQSNFQKMYQMFNETTSQVRKYQQNMSHLEEKLLLTTKISKNFETRLQDIESKVTQTLIPYYISVKKGSVVTNERDQALQLQVLNSRFKALEAKSIHLSINFFSLNKTLHEVLTMCHNASTSVSELNATIPKWIKHSLPDIQLLQKGLTEFVEPIIQIKTQAALSNLTCCIDRSLPGSLANVVKSQKQVKSLPKKINALKKPTVNLTTVLIGRTQRNTDNIIYPEEYSSCSRHPCQNGGTCINGRTSFTCACRHPFTGDNCTIKLVEENALAPDFSKGSYRYAPMVAFFASHTYGMTIPGPILFNNLDVNYGASYTPRTGKFRIPYLGVYVFKYTIESFSAHISGFLVVDGIDKLAFESENINSEIHCDRVLTGDALLELNYGQEVWLRLAKGTIPAKFPPVTTFSGYLLYRT
For the molecule B1, in series [2] (glycan lost, control: N-terminal EMI in WT HEK293T cells), the “expression_or_secretion, other: % reduction vs WT” value is reported as “decreases”.

B2: Multimerin-1 (MMRN1): T1055A (protein)
parent chain: B1 parent chain
As to B2, in series [3], the expression_or_secretion entry is “no change”. Also, the “expression_or_secretion, other: % reduction vs WT” value in series [2] (setting [5]) was “abolishes”.

B3: Multimerin-1 (MMRN1): T265A (protein)
parent chain: B1 parent chain
Take B3: the expression_or_secretion entry in series [3] is on record as “no change”. Further, in series [2] (setting [5]), the “expression_or_secretion, other: % reduction vs WT” value is “no change”.

B4: Multimerin-1 (MMRN1): FUT10/11 DKO (protein)
parent chain: B1 parent chain
With B4, in series [2] (glycan changed form, control: N-terminal EMI in WT HEK293T cells), the “expression_or_secretion, other: % reduction vs WT” value is “decreases”.

B5: Multimerin-1 (MMRN1): T216A (protein)
parent chain: B1 parent chain
Turning to B5, the expression_or_secretion result in series [3] is on record as “no change”. For the same molecule, the “expression_or_secretion, other: % reduction vs WT” value in series [2] (setting [5]) is “decreases”.

B6: Multimerin-1 (MMRN1): T216A/T265A (protein)
parent chain: B1 parent chain
For B6, in series [3], the expression_or_secretion entry is given as “no change”. Besides, the “expression_or_secretion, other: % reduction vs WT” value in series [2] (setting [5]) was “decreases”.

B7: GFP–FUT11 (POFUT4) (Homo sapiens) (protein)
chain: AGGEAEWAEPWDGAVFRPPSALGAVGVTRSSGTPRPGREEAGDLPVLLWWSPGLFPHFPGDSERIECARGACVASRNRRALRDSRTRALLFYGTDFRASAAPLPRLAHQSWALLHEESPLNNFLLSHGPGIRLFNLTSTFSRHSDYPLSLQWLPGTAYLRRPVPPPMERAEWRRRGYAPLLYLQSHCDVPADRDRYVRELMRHIPVDSYGKCLQNRELPTARLQDTATATTEDPELLAFLSRYKFHLALENAICNDYMTEKLWRPMHLGAVPVYRGSPSVRDWMPNNHSVILIDDFESPQKLAEFIDFLDKNDEEYMKYLAYKQPGGITNQFLLDSLKHREWGVNDPLLPNYLNGFECFVCDYELARLDAEKAHAASPGDSPVFEPHIAQPSHMDCPVPTPGFGNVEEIPENDSWKEMWLQDYWQGLDQGEALTAMIHNNETEQTKFWDYLHEIFMKRQHL
In the case of B7, the Km in series [4] stood at 5 µM.
